Assay results from the supplement of paper PMC9732359.
± gives the uncertainty stated by the source.

Test: protein stability index of a GFP-peptide fusion (yeast GPS) (PSI 1-4); higher = more stable; sorted into four equal gates, so the index is relative within each strain
Outline: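 For each peptide, the protein stability index sums the read frequency in every gate after multiplying it by the gate number. Read frequencies came from plasmids that were PCR-amplified from each gate and Illumina-sequenced, with reads assigned to strains by barcodes. The gates were four equal bins of GFP/Cherry fluorescence ratio applied to mid-log yeast in leucine-free medium carrying a pooled library of tiled 17-residue yeast protein peptides fused downstream of GFP on a Cherry-expressing plasmid.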

Sequence | protein stability index (doa10∆) | protein stability index (pdr5∆) | protein stability index (san1∆) | protein stability index (ubr1∆)
TLLNFVSNNVLRRLEIL [ECM29] | 1.63 ± 0.1 | 1.92 ± 0.29 | 2.28 ± 0.19 | 2.48 ± 0.12
KQTGRDQMVVGWYHSHP [RPN11] | 2.4 ± 0.12 | 1.97 ± 0.096 | 2.4 ± 0.15 | 1.53 ± 0.096
DTKSVVGLVMFSQFWYW [RPN2] | 2.35 ± 0.06 | 2.3 ± 0.062 | 2.61 ± 0.097 | 2.52 ± 0.04
TRQASDLASSKEVLAKI [RPN5] | 2.92 ± 0.11 | 2.96 ± 0.06 | 2.99 ± 0.077 | 2.85 ± 0.076
VRKELRGRAVVLMGKNT [RPP0] | 1.71 ± 0.067 | 1.83 ± 0.094 | 2.12 ± 0.15 | 2.08 ± 0.057
MKVKADRDESSPYAAML [RPS14A] | 3.37 ± 0.1 | 3.29 ± 0.065 | 3.23 ± 0.048 | 3.27 ± 0.068
NLETLVTTKDDLSGADI [RPT2] | 3.15 ± 0.067 | 3.34 ± 0.085 | 3.27 ± 0.037 | 3.34 ± 0.057
PIPVQGEIEIKPNEEEE [RPN13] | 2.45 ± 0.081 | 2.59 ± 0.067 | 2.58 ± 0.15 | 2.67 ± 0.1
NKYPELLGKDNEDDALI [AAR2] | 3.33 ± 0.1 | 3.19 ± 0.089 | 3.33 ± 0.051 | 3.02 ± 0.11
NFEATKKSVLKQVQDFE [COR1] | 2.76 ± 0.13 | 2.39 ± 0.25 | 3.07 ± 0.15 | 2.91 ± 0.072
SEEEEDEEENGSSDEDL [SSN2] | 3.48 ± 0.26 | 3.74 ± 0.24 | 3.63 ± 0.12 | 3.32 ± 0.17
DYNLRIYCYFLIMKLGR [SSN8] | 1.23 ± 0.084 | 1.12 ± 0.098 | 1.36 ± 0.29 | 1.39 ± 0.11
VHPFHVLRINKMLSCAG [RPL10] | 1.11 ± 0.086 | 1.21 ± 0.075 | 1.21 ± 0.092 | 1.05 ± 0.06
SLTPTQSDSAKVEIKKV [PRP28] | 3.01 ± 0.12 | 3.39 ± 0.069 | 2.92 ± 0.093 | 3.1 ± 0.06
ELVVFLPALCKKMGVPY [RPL8A] | 2.92 ± 0.098 | 2.83 ± 0.11 | 2.78 ± 0.14 | 3 ± 0.061
INYHQYISKAQNDQWSI [SSN2] | 2.63 ± 0.058 | 2.83 ± 0.053 | 2.56 ± 0.051 | 2.73 ± 0.056
ANEEPNTENVESVPTPA [ITC1] | 2.87 ± 0.14 | 2.91 ± 0.11 | 2.98 ± 0.26 | 3.18 ± 0.15
QKYTKEMIDSHIKEASE [SNF2] | 2.93 ± 0.06 | 2.88 ± 0.054 | 2.94 ± 0.051 | 3.02 ± 0.037
NQPHQSQTPSFNTNSSF [YOR098C/NUP1] | 2.64 ± 0.042 | 2.99 ± 0.034 | 2.93 ± 0.036 | 3.047 ± 0.03
MKQLKFFKPLDYITEAV [SNU114] | 2.12 ± 0.043 | 2.05 ± 0.052 | 1.86 ± 0.082 | 1.92 ± 0.036
SFGSKPTGKEEGDGAKA [YJL041W/NSP1] | 3.59 ± 0.12 | 3.31 ± 0.065 | 3.48 ± 0.11 | 3.21 ± 0.083
SNIPNLLRNLESKMRQQ [YDL088C/ASM4] | 3.15 ± 0.11 | 2.84 ± 0.086 | 2.97 ± 0.12 | 3.07 ± 0.062
SQSQQKLLKEKVKLFHG [MED2] | 3.1 ± 0.091 | 3.1 ± 0.093 | 3.07 ± 0.057 | 2.81 ± 0.08
FLLVPSKQVQVSQQPLS [ECM29] | 1.81 ± 0.092 | 1.92 ± 0.072 | 1.42 ± 0.11 | 2.17 ± 0.043
TSIEKSSEILSYLSNSL [YML103C/NUP188] | 2.21 ± 0.072 | 2.57 ± 0.076 | 1.49 ± 0.1 | 2.14 ± 0.046
EARLRNLTYSSGLFVDV [RPB2] | 2.34 ± 0.057 | 2.25 ± 0.047 | 1.46 ± 0.075 | 1.79 ± 0.028

Sequence | protein stability index (doa10∆) | protein stability index (pdr5∆) | protein stability index (san1∆) | protein stability index (ubr1∆)
QLEEDENITNKVTEKVL [CSI1] | 3.2 ± 0.088 | 3.2 ± 0.09 | 3.33 ± 0.057 | 3.13 ± 0.055
IHLLHDDRGPVLESIVA [BRR2] | 2.48 ± 0.089 | 1.78 ± 0.06 | 3.24 ± 0.05 | 2.63 ± 0.11
PNCPRPNMSICIFGDAF [RPL1A] | 1.75 ± 0.083 | 1.55 ± 0.06 | 1.55 ± 0.2 | 1.53 ± 0.04
RVPIRSEYKVAFPHLYN [PRP8] | 2.54 ± 0.069 | 2.27 ± 0.062 | 2.34 ± 0.083 | 2.08 ± 0.041
NWRKQKGIDSVVRRRFR [RPL32] | 2.56 ± 0.1 | 2.66 ± 0.17 | – | 2.28 ± 0.18
LDPYERAIYSYLSGAIP [YDL116W/NUP84] | 2.83 ± 0.12 | 3.11 ± 0.082 | 3.13 ± 0.098 | 3.11 ± 0.13
NIAKDLKWKKGIRGKLV [SMC1] | 1.37 ± 0.12 | 2.04 ± 0.14 | 2.23 ± 0.12 | –
ELPLEDFKAKYCDSMGR [RPB5] | 3.31 ± 0.13 | 3.29 ± 0.14 | 3.74 ± 0.13 | 3.51 ± 0.12
TTAVEDEDDDLDEDDVN [RPB4] | 3.5 ± 0.11 | 3.27 ± 0.1 | 3.55 ± 0.15 | 3.3 ± 0.093
SARSSVHESLVTQSNIL [SRB8] | 2.77 ± 0.078 | 3.04 ± 0.076 | 2.81 ± 0.061 | 2.83 ± 0.086
VLKFTFTGEKPIITGST [MED8] | 2.01 ± 0.082 | 2.18 ± 0.074 | 2.04 ± 0.12 | 2.07 ± 0.062
VLVASAKGLQTVVVEED [RPL31A] | 2.19 ± 0.1 | 2.49 ± 0.11 | 2.54 ± 0.087 | 2.25 ± 0.094
QIDQLNRLLPNLPEEER [GRR1] | 2.62 ± 0.091 | 2.12 ± 0.064 | 2.05 ± 0.098 | 2.51 ± 0.083
ENYDAKIELEKKEKWAR [YIL149C/MLP2] | 3.2 ± 0.08 | 3.2 ± 0.12 | 2.67 ± 0.12 | 3.12 ± 0.067
GIAIGLNKGKKVTSMTP [RPL36A] | 3.08 ± 0.18 | 3.13 ± 0.12 | – | 3.15 ± 0.1
GGSFGNREEFINKLVKA [RPL7B] | 3.01 ± 0.22 | – | – | 2.93 ± 0.078
SRSTDNFHNSKKRMNSN [RRI1] | 2.11 ± 0.06 | 2.4 ± 0.081 | 2.26 ± 0.1 | 2.61 ± 0.081
VLNGQKIVVVRAEALNI [RPL16B] | 2.47 ± 0.14 | 3.15 ± 0.14 | 3.16 ± 0.11 | 3.11 ± 0.11
YPFVTNDDIEWMLSICV [YJR042W/NUP85] | 2.29 ± 0.083 | 2.56 ± 0.061 | 2.67 ± 0.059 | 2.68 ± 0.058
PDSNHLSSETGIKLALD [SRB4] | 3.3 ± 0.087 | 3.35 ± 0.073 | 3.33 ± 0.058 | 3.37 ± 0.066
ESLRGILHVRAQYCYKN [SRP72] | 1.94 ± 0.1 | 2.36 ± 0.11 | 2.18 ± 0.22 | 2.13 ± 0.062
TGQNFLTSNISSLVRSC [REC8] | 3.21 ± 0.12 | 2.78 ± 0.08 | 2.54 ± 0.099 | 2.96 ± 0.091
FIRHVAKLNYKNLNPAS [ECM29] | 2.49 ± 0.15 | 1.16 ± 0.1 | – | 1.03 ± 0.076
FVPNDGCLNFVDENDEV [RPS23A] | 2.94 ± 0.063 | 3.04 ± 0.071 | 2.78 ± 0.05 | 2.65 ± 0.055
PRDVIKGKDFEITAKEV [FAS1] | 3.27 ± 0.095 | 3.41 ± 0.12 | 3.24 ± 0.07 | 3.36 ± 0.083
HPLHELIIQYPPNNARR [ISW2] | 3.06 ± 0.065 | 2.88 ± 0.056 | 2.73 ± 0.052 | 3 ± 0.047
